Data as given in patent US20060159681A1 (FUNCTIONAL NEUROSCIENCE, published 2006).

What was measured:
Hsp70 = Hsp70 (UniProt P0DMV8 1-641); assay: co-immunoprecipitation from transfected HEK293T lysate
Protocol: (§1) Samples were harvested in lysis-buffer (50 mM Tris-HCl pH 7.4, 150 mM NaCl, 2 mM EDTA, 1% Triton X-100) supplemented with protease inhibitors (Roche). For complete solubilization of the pellet in synphilin ubiquitinylation experiments boiling lysis-buffer with 1% SDS was used. IPs were performed overnight followed by incubation with Protein G sepharose beads (Amersham). PDAs were performed with equimolar amounts of GST- and His-fusion proteins for 1 hr (4° C.). Beads were washed once with lysis-buffer and three times with PBS (pH 7.4).
Therefore, it was tested whether BAG5 may associate with itself by co-transfecting N-terminus GFP-tagged BAG5 (GFP-BAG5) with FLAG-BAG5 in HEK293T cells. […] Indeed, both GFP-BAG5 and GFP-BAG5(DARA) co-immunoprecipitated with FLAG-BAG5(DARA) (FIG. 3E, lane 4 and 6, respectively). It was also confirmed that Hsp70 co-immunoprecipitated with FLAG-BAG5 and not FLAG-BAG5(DARA) (FIG. 3E, lanes 1, 3 and 5 vs. 2, 4 and 6). […] Similar to results from FIG. 3E, GST-BAG5 and GST-BAG5(DARA) interacted with both GFP-BAG5 and GFP-BAG5(DARA), whereas only GST-BAG5 interacted with Hsp70 (FIG. 3F). […] Therefore complexes of BAG5 which contained BAG5(DARA) were unable to bind Hsp70 and inhibited BAG5 activity.

His-Hsp70 = molecular target: T1, His-Hsp70 (human, UniProt P0DMV8 1-641); assay: in vitro GST pull-down
T1 construct: Purified from E. coli (pDEST17) for the pull-down assays; also called full-length Hsp70; not shown: N-terminal hexa-histidine tag from a pDEST vector
Protocol: as §1
To further examine the nature of the association between parkin, Hsp70 and BAG5, in vitro pull-down experiments using GST-Hsp70, GST-BAG5, or GST-BAG5(DARA) with recombinant N-terminus His-tagged parkin were used. […] Thus, BAG5 interacted directly with parkin in the absence of Hsp70.

[1] = molecular target: T2, endogenous Hsp70 in human brain lysate (human, UniProt P0DMV8 2-641); assay: GST pull-down from human brain SNpc lysate
T2 construct: Native protein in tissue lysate, detected with a monoclonal anti-Hsp70 antibody
T2 sequence (P0DMV8 2-641): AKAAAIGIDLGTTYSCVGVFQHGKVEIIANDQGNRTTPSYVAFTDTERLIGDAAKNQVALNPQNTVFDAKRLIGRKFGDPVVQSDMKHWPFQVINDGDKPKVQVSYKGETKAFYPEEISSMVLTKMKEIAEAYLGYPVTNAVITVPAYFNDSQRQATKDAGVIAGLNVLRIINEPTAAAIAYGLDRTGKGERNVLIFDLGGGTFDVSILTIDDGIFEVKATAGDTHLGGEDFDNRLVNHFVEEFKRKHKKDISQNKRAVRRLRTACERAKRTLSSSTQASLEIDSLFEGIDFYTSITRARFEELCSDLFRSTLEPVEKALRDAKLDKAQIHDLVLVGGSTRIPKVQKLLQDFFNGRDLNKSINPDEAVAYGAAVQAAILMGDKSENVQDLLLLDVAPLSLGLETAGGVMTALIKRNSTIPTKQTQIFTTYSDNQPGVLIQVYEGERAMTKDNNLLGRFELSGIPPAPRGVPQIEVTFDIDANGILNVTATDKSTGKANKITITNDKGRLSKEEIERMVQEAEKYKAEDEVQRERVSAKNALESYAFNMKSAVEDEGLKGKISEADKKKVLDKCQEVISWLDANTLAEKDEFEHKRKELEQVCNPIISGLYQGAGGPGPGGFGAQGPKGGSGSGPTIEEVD

T1 sequence (P0DMV8 whole entry): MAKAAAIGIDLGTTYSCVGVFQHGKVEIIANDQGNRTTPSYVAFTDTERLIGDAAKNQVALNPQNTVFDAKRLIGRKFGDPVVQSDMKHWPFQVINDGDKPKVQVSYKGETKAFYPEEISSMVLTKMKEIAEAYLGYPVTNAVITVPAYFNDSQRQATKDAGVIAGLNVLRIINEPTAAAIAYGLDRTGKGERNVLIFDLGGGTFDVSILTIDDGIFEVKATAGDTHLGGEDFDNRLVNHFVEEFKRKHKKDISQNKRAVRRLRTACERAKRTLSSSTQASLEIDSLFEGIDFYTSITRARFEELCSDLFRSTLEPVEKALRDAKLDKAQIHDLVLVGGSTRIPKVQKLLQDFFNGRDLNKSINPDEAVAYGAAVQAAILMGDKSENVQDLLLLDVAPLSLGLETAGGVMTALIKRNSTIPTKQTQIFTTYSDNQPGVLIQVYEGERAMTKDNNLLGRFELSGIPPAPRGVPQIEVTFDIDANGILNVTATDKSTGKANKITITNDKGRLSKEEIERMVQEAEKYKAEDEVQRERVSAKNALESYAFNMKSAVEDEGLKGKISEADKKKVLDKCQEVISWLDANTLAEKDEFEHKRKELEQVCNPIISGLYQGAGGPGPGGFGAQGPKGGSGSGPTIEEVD
Hsp70, sequence (P0DMV8 whole entry, the tested form may be a part): as the sequence (P0DMV8 whole entry) above

B1: FLAG-BAG5(DARA) (other, not shown: small tags and cut ends)
chain: MDMGNQHPSISRLQEIQKEVKSVEQQVIGFSGLSDDKNYKKLERILTKQLFEIASVDTEGKGDIQQAAKRAAQETERLLKELEQNANHPHRIEIQNIFEEAQSLVREKIVPFYNGGNCVTDEFEEGIQDIILRLTHVKTGGKISLRKARYHTLTKICAVQEIIEDCMKKQPSLPLSEDAHPSVAKINFVMCEVNKARGVLIALLMGVNNNETCRHLSCVLSGLIADLAALDVCGRTEIRNYAREVVEDINKLLKYLDLEEEADTTKAFDLRQNHSILKIEKVLKRMREIKNELLQAQNPSELYLSSKTELQGLIGQLAEVSLEKNPCIREAARRAVIEVQTLITYIDLKEALEKRKLFACEEHPSHKAVWNVLGNLSEIQGEVLSFDGNRTDKNYIRLEELLTKQLLALAAVDPQGEEKCKAAAKQAVRLAQNILSYLDLKSDEWEY
notes: Expressed by transfection in HEK293T cells
binding result (Hsp70): no binding

B2: GST-BAG5(DARA) (other, not shown: a dimerising Fc or GST; large carriers; small tags and cut ends)
chain: MDMGNQHPSISRLQEIQKEVKSVEQQVIGFSGLSDDKNYKKLERILTKQLFEIASVDTEGKGDIQQAAKRAAQETERLLKELEQNANHPHRIEIQNIFEEAQSLVREKIVPFYNGGNCVTDEFEEGIQDIILRLTHVKTGGKISLRKARYHTLTKICAVQEIIEDCMKKQPSLPLSEDAHPSVAKINFVMCEVNKARGVLIALLMGVNNNETCRHLSCVLSGLIADLAALDVCGRTEIRNYAREVVEDINKLLKYLDLEEEADTTKAFDLRQNHSILKIEKVLKRMREIKNELLQAQNPSELYLSSKTELQGLIGQLAEVSLEKNPCIREAARRAVIEVQTLITYIDLKEALEKRKLFACEEHPSHKAVWNVLGNLSEIQGEVLSFDGNRTDKNYIRLEELLTKQLLALAAVDPQGEEKCKAAAKQAVRLAQNILSYLDLKSDEWEY
notes: also called mutant BAG5(DARA)
binding result (His-Hsp70): no binding | binding result [1]: no binding
